The record followed here is the domain aggregation screens of Martell et al. (2025).

The data set is described as follows: soluble fraction after stress (log2 fold change); higher = more stays soluble; pooled small domains, quantitative proteomics. As to conditions: stress: pH 4. The procedure, abridged:
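After pH 4 stress, pooled custom libraries of small protein domains were quantified with high-throughput quantitative proteomics. Aggregation propensity is taken from the fold change in each domain's soluble amount following the acid stress. The scale is log2, where higher values mean more stayed soluble.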
On to “HMKHYIDFIAEQLKTLTAIPSPSGYTKNATDYLMKLLQDMGYEPKLSRKGNVFVTLGGDGEPLVLAAHVD”, for which the “soluble fraction (log2)” value was -0.112.
With “HMKIDELKAYLFQSVRVKNPHTQEYDTLKIIELNYYQDKIKAKLKNSDDDYITEMIFESIKHLQNFLG” the figure was -1.98.
Turning to “HMKIEEIAYSTFISMLDKGEVSKVELKDNLIYIETKADDKTIYTTGRMEDPDLTNRLIEAGVDFTEIE”, the “soluble fraction (log2)” value was -0.73.
With “HMKIELSDNEKIIYDLLSSQHVLLSEIKDKAGLSNKAWDKSTKSLRKLGLIAVEKKDDDIYISKL” the figure was 0.247; with “HMKIGIYPGTFDPITHGHTDIIRRSLRVFDKVVVAVAPNPSKHPLFTLTERLEMIRIVMKELEHVEVT”, 0.117; with “HMKILVTDDNIRIDKYLTTQTEYSRSTIQKMIESNNILVNNKPTKSNYILRNNDEITIDENFNEE”, -0.0512.
With “HMKININEASRYELMTIGGLDAGRADMLMQYRQKREISSADELKGINGFASYDTAKLQKSFEISP” the figure was 0.00275.
In the case of “HMKIRKAVIPAAGLGTRVLPASKSIPKEMLPIVDKPVIQYIVEEAVKAGITEILIITGRGKGAIEDHFDRS” it was 0.0275.
On to “HMKISIDNPSVLLDKLATLFPDTSKNKLRKMLTEGRIYVNDNIEHRAKRELINGDTVKILDKTTSKE”, for which the “soluble fraction (log2)” value was -0.0228.
With “HMKITAPLPGTITEIKVKVGDTVKNGDTVVVLEAMKMQNNIEAESNGTVTAIFVNKGDTVMEGDALMTI” the figure was 0.22.
In the case of “HMKITTKNYFKAIAEVGVENLPAALKKSHDLIEERTSKGADWSVYEHDAEVRRVFDLTFEKLFEFIDQ” it was -1.23; in that of “HMKKAITMGDIITVKELSEKIGIQVAEIIKKLMGLGILATINKELDYDTANVIASEFHIELERK”, 0.0872; in that of “HMKKASLSTVEKKLMKQNYSNDTMENRLARVESYMFGTVFSSDDTQTRIDRISSAYNAQKSS”, -0.197.
In the case of “HMKKDLATYAYEHIKQMVIDRELMPGERIQQEVLARELGISRTPLVTALNRLASENLVELEANKGFSVRRF” it was 0.429; in that of “HMKKEETEAEELEEKFTSAQIKQAYGILNDPRYKQGNYSGAVNVINKIAPGLADHPDVKNALKRANEEL”, -0.323; in that of “HMKKGRIGSIIQYVREHPGVSSSEIITGLGLDISPATIRRDLTLLVAENKLSVEGQNKGTKYFVSPTYDMF”, 0.271.
On to “HMKKIDVEVVRSQLIAWMADNGKSQAEVSKSMGISASALSMFIKGTYTGDNEQIGRKAAALMDLVHRQSA”, for which the “soluble fraction (log2)” value is 0.189.
Consider “HMKKILITGNSGYIGSHLSKMLENDYEVHGLDIRQPQHPVAKFYEQDINRPINIEEEYDAVIHLAALV”, for which the “soluble fraction (log2)” value was -0.104.
In the case of “HMKKILLGDVNLDGKVDVNDVTLLQRYIAGETEVITSKDALTATNFNKDGNIDVLDVTDIQTFIANSE” it was 0.00934; in that of “HMKKLTNKQIIFFAEKLAHHSDFASKYSKVGESYEEFAIRLEKELNTPQKVEFYSSYLEKVGFK”, -0.78; in that of “HMKKPKTVLSEEQKEFIINQAQDGVSAYDIARILFPSVNVTNLSKEVIDVAEFIRDTDIKLLADSE”, -0.132.
In the case of “HMKKPRKTSRKSIENAAIFYLQRFSSSIENLRRVLMRRVYRSAQYHNTKPEEDAKIVDSIIYRLIETGVL” it was -0.0658.
In the case of “HMKKSRLHSVLEEIPGIGEKRRKILIKHFGTVEAIKKSSLEELARIKGMNRRAAQNVLEYLK” it was 0.407; in that of “HMKKVIKIEENVSLQKLAALMSLKVTDVLMRLLSMGMSGVNINSTIDADTAKILASEFGWTVED”, -0.669; in that of “HMKKVKVPNVVGMSLKEARDALSAVNIAVNQVAGSVEDKSVVTEQSLKAGDEVDEGSSLNLTTEYK”, 0.412.
As to “HMKKYLTETEAAAYLNMPVEEIKAAITKGEIEQYVKTSSGYTISVEELDKFFGQKAYDTMTSNNS”, the “soluble fraction (log2)” value is -0.43.
As for “HMKLASIGDNIHTLRKNKGLTQSQLAGKLGVNVDTISNYEKGVSTPDFDIVEKLVNIFNVDAHSLLFK”, the “soluble fraction (log2)” value is -0.351.
As to “HMKLEKKWIEAVEKYRRYVLSTGIKHVQKPIEFENFRLGQWYADVRQSYRRGTLSKEKLLEIREINPDFPN”, the “soluble fraction (log2)” value was found to be 0.324.
Take “HMKLFGTPGSPFARKVRIVLEEKRIPHEYIIERGSAPGSRVPQYNPLGKVPTLVLDDGRGLYDSPVIVEYL”: the “soluble fraction (log2)” value was -0.108.
With “HMKLGYTVHGNVVTVKAVANGISLYNTIGQKVAESTDGQTVKAPAHGVYILSVQGKSGSRETAKIVI” the figure was 0.114; with “HMKLHQDLQIKVIDAANNKVEFIDTATGTSLATRTLDVNGVSKARGFEATLYGVVEDNDVFHIA”, -0.116; with “HMKLIRIPFILTEGPDSQKITIDVDGDEEFRLGDVFEEDDKLWTVNQILVSGERKAKRSMAGEVMRISALR”, -0.696.
In the case of “HMKLNEQSMQVIDRIVDRHRGRPGPVKLMLHDVQKELGYIPFEAMEKIAAASGVSADEVYGVVTFYTQFTT” it was -1.27; in that of “HMKLNETIAEARKRKGLTQEQLAQKLYVTRQAVSRWERGEVVPGIDMLKLIAITLEEPIVHLL”, -0.679; in that of “HMKLQIQNIEIDKKISELAEGVSAEKLPFLAKLIDRSKLLNDKGEINEDSVKAAIEEVVKAFPDFK”, -0.945.
With “HMKLRKINLIGIFGSKTAPSALVRLTNGRVLKVGLGELLDGGRVTAIGRSSLTYNKSGKSITLNMPI” the figure was no less than 0.43.
In the case of “HMKLRYRTQEELLGVAREYRRRGLPLSVIVIDFYHWTKFGDWKFDPAYWPDPVGMVRELRDMGVEAAV”, the “soluble fraction (log2)” value came to 0.22.
For the sequence “HMKLSKKVTDFLAQMPSKSISPKMLANNLGLADDAGDYKHLLKTIAQLEESKAIEVTAAGNIALPQPE”, the “soluble fraction (log2)” value was 0.0669.
In the case of “HMKLSLKTQVKEYLLSYIRDKKLQPGDRLLTQRELAEMLHTSQKVAQMALNSLEEEGIIIRRLGSGSFLAR”, the “soluble fraction (log2)” value was -0.227.
For the sequence “HMKLTKPQEVFIQELLKGSSQYEAYLKAYPSKKTWKRNSIDTEASKLFKNAKIKQRYEELLYNIREE”, the “soluble fraction (log2)” value is -0.175.
With “HMKLTNNDFIRLKTFMYNNYGINLENKKTLIETRLAIVVKRLGFNDFKSYIDNLMRDKTGEQASIIVGKLT” the figure was -0.141; with “HMKLTPKQQQIYDFISSFADEHGYPPSVREIAQAVNLKSPATVHFHLKGLREAGYISQAEGKTRAITI”, -0.136; with “HMKMDGESQRLLSLIKEQGGSLPIGDKSSPEAIYRLTQMSKKTFKMALGSLYKAKQVVLSPTEVRL”, 0.0519.
In the case of “HMKMNFNEEEQKLLSEANVLVETNKTYTDDEVKGFSNKIVEHIMTFSKTDIPKVKSKFDPILFKI” it was -0.745; in that of “HMKMTIEDLITQAKESNAAENYYEAFQLYSKAIDVLPNDPDLYSARGVVLFHLDRKEDSLIDMNKSVD”, -0.879.
In the case of “HMKMVEIDYGKFLTMLDTGKVKSVEIENNRIAINPSSSKDKNIYITGRMDDPELVDRLKNAKVEFTKVIP” it was -0.0394.
Regarding “HMKNAYDLKMLVKDNDGNIERNMKYYFFLANGSKVEGITDDNGYTKTITTIQPEKADLHLINDELI”, the “soluble fraction (log2)” value is -0.0557.
In the case of “HMKNDIQLKHDVEEELQWDPAVDASRFAVQAKDGVVTLSGGVDTFADKHAAEEAIRRVAGVTALVIHVDV” it was -0.271.
With “HMKNEFRVYPNPANKEIVTFNQTQDIEVYDTLGKLVLKAKNTNTLDTKSFHSGIYFIKTGSGLTRKLVV” the figure was no less than 0.43.
In the case of “HMKNEQESIAQKLYEAALKNDFVTIQEIQSGGYRLRNDDLTHMRESGVQSNTLIAIQKIFGL” it was -0.578.
“HMKNEQIFIVRPDAEGTRLDQWLAAQMASSEEAPSRMQIQRWIKAGLVEGQGTLNPARRIEAGESYTVKPG”: the “soluble fraction (log2)” value came to 0.203.
With “HMKNEYAMVIQVNGKLRGNMLVSADLEQKDIERMALDNEDIKRFISHENDVKKMIFVPKKLINIVT” the figure was no less than 0.43; with “HMKNIFDWLKQINYHKQPADSFTEKDWELFNSYMVHRFMSMNREFIEVVNYVQEMPPQEKILIYNIYREF”, 0.25.
In the case of “HMKNIINFIVKEDDNNKRVDMILANHDKSLSRTRVKNLILDSKLKINERIVQDPSIKTKLNDKIELEIVEP” it was 0.251.
In the case of “HMKNIINLVIDGELHGKRIDAVIAQKNDSLSRTRIKNLVINGNLSINDEIVSDPSKKIYKDDKVSLTIPLP” it was -0.085; in that of “HMKNIMRQWIELEPDQGKIRSKLYSLDRVVEETTNEVGMIKLLLEIDEKELNNLVSHNDIRLV”, -0.625.
As for “HMKNIRKQAIEAIDRIKNGNPIVISKNAKLIFKNIAKEANVSPTELHREFRDVMLYVNSLKAP”, the “soluble fraction (log2)” value came to 0.271.
With “HMKNKVTVPKVEGMDKEEAIQALNEVGLGYKAVMQSSDSVAEGKVISQGTAAGKKVDKNTQIIITVSGG” the figure was no less than 0.43.
In the case of “HMKNLADNIVALRKKHGLSQEQFAEKIDVTRQAVSNWERRIATPDVETIDLIAKLFDTDLTALVNG” it was -0.129; in that of “HMKNLKLVSNTDGIRIDSWLADEFEDYSRSYLRKLIDQDLVYVNGNKIKANYKLKKGDEISISIPEPE”, -0.259; in that of “HMKNLTERQQQIIALISGNPLITRAEIASAIGFSVKTIERELSILSEIVSYVGSKKGGHWEIQT”, -0.49.
Consider “HMKNLTERQQRIIALISENPQTTRAEIAGAIGVATKTIERELTTLSNIVYYVGPKKGGHWEIIK”, for which the “soluble fraction (log2)” value was determined as 0.333.
For “HMKNLTEVEYSEFLESIAQDRVSKVQVDGLIIRGEMNDGQRFETVQPQVTDKALIDDMVNHRVDFSGARP”, the “soluble fraction (log2)” value is -0.726.
As for “HMKNMSLGERIKEQRKSSGLSQEKVAEFVGVSRQAVTKWETGQSAPSTENLFKLAEIFGTTVDILLA”, the “soluble fraction (log2)” value was -0.0228.
In the case of “HMKNNAIAPDQVVSLLKNEVNYNDDGRIEILDNNKNIRYNSKGELLTIEERVNEFLDANPHFRK” it was -0.0472; in that of “HMKNSMANVQARREKILSAVDQSEPVAVEGLAQRFNVSITTLRRDLKALSDMGQVKWHHGLVERT”, 0.164.
With “HMKNVADEVFEKMLNMIIEGDWKKGEMIPSENELREAFSVSRSTVRQAVQRLSALGIVRSRQGKGTYVEQV” the figure was 0.0309; with “HMKNYYELLGVAREASQDQIKKAYRKLARKYHPDVSKEADAETRMQELNVAYDTLSDAEKKREYDFQLDHP”, 0.218.
Take “HMKPDDDMLLKILTKLFIQKQFVINSKDIFQYILKNTNRTYENIINIVNRLDTLSIEKKRQLTIPLIKEI”: the “soluble fraction (log2)” value was -0.555.
